This passage reports Kd, koff and kon results from patent US20110129459A1 (Chugai, published 2011).

T1: rhNR10 (recombinant human NR10) (human, UniProt Q8NI17 20-519, limits assumed)
T1 construct: also called IL-31 receptor; IL31RA
T1 sequence: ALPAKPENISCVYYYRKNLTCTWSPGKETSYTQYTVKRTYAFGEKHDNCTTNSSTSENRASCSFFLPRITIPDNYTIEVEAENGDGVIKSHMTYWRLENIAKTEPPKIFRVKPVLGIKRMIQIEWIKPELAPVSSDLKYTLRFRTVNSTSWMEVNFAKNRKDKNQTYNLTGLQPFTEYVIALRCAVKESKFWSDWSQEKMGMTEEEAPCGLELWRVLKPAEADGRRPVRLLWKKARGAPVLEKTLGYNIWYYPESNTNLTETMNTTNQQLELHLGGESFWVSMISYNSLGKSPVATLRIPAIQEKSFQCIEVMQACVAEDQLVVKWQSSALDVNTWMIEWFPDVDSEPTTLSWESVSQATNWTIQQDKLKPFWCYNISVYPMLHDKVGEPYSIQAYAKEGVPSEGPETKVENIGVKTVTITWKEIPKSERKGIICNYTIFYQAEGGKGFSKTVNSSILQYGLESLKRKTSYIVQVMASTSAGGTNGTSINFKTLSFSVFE

B1: H0La130 (H0-SKSC / La130) (antibody, V domains shown)
VH: QVQLVQSGAEVKKPGASVKVSCKASGYTFTGYIMNWVRQAPGQGLEWMGLINPYNGGTSYNQKFKGRVTITADESTSTAYMELSSLRSEDTAVYYCARDGYDDGPYTMDYWGQGTLVTVSS
VL: DIQMTQSPSSLSASVGDRVTITCRTSENIYRFVAWYQQKPGKAPKLLIYNAKTLAKGVPSRFSGSGSGTDFTLTISSLQPEDFATYYCQHHYESPLTFGGGTKVEIKR
B2: Ha111L0 (Ha111-SKSC / L0) (antibody, V domains shown)
VH: B1 VH with M34L
VL: B1 VL with R31S, V33L
B3: H0La326 (H0-SKSC / La326) (antibody, name in Kabat numbering, V domains shown)
VH: B1 VH
VL: B1 VL with R31S, V33L, T97F
B4: Ha219L0 (Ha219-SKSC / L0) (antibody, V domains shown)
VH: B1 VH with Q62P
VL: B1 VL with R31S, V33L
B5: H0La134 (H0-SKSC / La134) (antibody, V domains shown)
VH: B1 VH
VL: B1 VL with V33L
B6: H0La328 (H0-SKSC / La328) (antibody, V domains shown)
VH: B1 VH
VL: B1 VL with R31S, V33L, S94D
B7: Ha103L0 (Ha103-SKSC / L0) (antibody, V domains shown)
VH: B1 VH with M34I
VL: B1 VL with R31S, V33L
B8: H0La303 (H0-SKSC / La303) (antibody, V domains shown)
VH: B1 VH
VL: B1 VL with R31S, V33L, E93D
notes: also called Ls303
B9: Ha204L0 (Ha204-SKSC / L0) (antibody, V domains shown)
VH: B1 VH with S59D
VL: B1 VL with R31S, V33L
B10: Ha101L0 (Ha101-SKSC / L0) (antibody, V domains shown)
VH: B1 VH with I33V
VL: B1 VL with R31S, V33L
B11: H30L17 (H30-M58 / L17) (antibody, V domains shown)
VH: B1 VH with S59D, Q62P, K63Q, K65Q, G66D, M108L, D109E, Y110T
VL: B1 VL with R24Q, T25A, N28D, R31S, K52Q, L54E, K56Q, E93D
B12: H92L17 (H92-M58 / L17) (antibody, V domains shown)
VH: B1 VH with I33A, S59D, Q62P, K63Q, K65Q, E74K, M108L, D109E, Y110T
VL: B1 VL with R24Q, T25A, N28D, R31S, K52Q, L54E, K56Q, E93D
B13: H57L17 (H57-M58 / L17) (antibody, V domains shown)
VH: B1 VH with S59D, Q62P, K63Q, K65Q, M108L, D109E, Y110T
VL: B1 VL with R24Q, T25A, N28D, R31S, K52Q, L54E, K56Q, E93D
B14: H42L17 (H42-M58 / L17) (antibody, V domains shown)
VH: QVQLVQSGAEVKKPGASVKVSCKASGYTFTGYVLNWVRQAPGQGLEWMGLINPYNGGTDYNPQFQDRVTITADKSTSTAYMELSSLRSEDTAVYYCARDGYDDGPYTLETWGQGTLVTVSS
VL: B1 VL with R24Q, T25A, N28D, R31S, K52Q, L54E, K56Q, E93D
B15: H78L17 (H78-M58 / L17) (antibody, V domains shown)
VH: B14 VH with V33I, L34M, D66G
VL: B1 VL with R24Q, T25A, N28D, R31S, K52Q, L54E, K56Q, E93D
B16: H46L17 (H46-M58 / L17) (antibody, V domains shown)
VH: B14 VH with V33A, L34M
VL: B1 VL with R24Q, T25A, N28D, R31S, K52Q, L54E, K56Q, E93D
B17: H34L17 (H34-M58 / L17) (antibody, V domains shown)
VH: B14 VH with V33A, L34M, K74E
VL: B1 VL with R24Q, T25A, N28D, R31S, K52Q, L54E, K56Q, E93D
B18: H98L50 (H98-M58 / L50) (antibody, V domains shown)
VH: B14 VH with V33I, L34M, D59S, P62Q
VL: B1 VL with R24Q, T25A, N28D, R31S, V33L, K52Q, L54E, K56Q, E93D
B19: H97L50 (H97-M58 / L50) (antibody, V domains shown)
VH: B14 VH with V33I, L34M, D59S, P62Q, K74E
VL: B1 VL with R24Q, T25A, N28D, R31S, V33L, K52Q, L54E, K56Q, E93D
B20: H71L17 (H71-M58 / L17) (antibody, V domains shown)
VH: B14 VH with V33A, L34M, D66G, K74E
VL: B1 VL with R24Q, T25A, N28D, R31S, K52Q, L54E, K56Q, E93D
B21: H28L17 (H28-M58 / L17) (antibody, V domains shown)
VH: B14 VH with K74E
VL: B1 VL with R24Q, T25A, N28D, R31S, K52Q, L54E, K56Q, E93D

Positions count from the first letter of the chain named.

The target of one experiment is T1, rhNR10 (recombinant human NR10). The experiment in a line: SPR, Biacore T100; antibody captured on Protein A, rhNR10 as analyte. Here is the method: (§1) Kinetic analysis of the antigen-antibody reaction was carried out using Biacore T100 (GE Healthcare Biosciences). The antigen-antibody interaction was measured by immobilizing rec-Protein A (hereinafter Protein A) (ZYMED) onto a sensor chip, capturing an antibody on the immobilized Protein A, and then reacting the antigen as an analyte. Various concentrations of rhNR10 were used as the antigen. The kinetic parameters, association rate constant kₐ (1/Ms) and dissociation rate constant kd (1/s), were calculated from the sensorgrams obtained by the measurement. Then, KD (M) was determined based on the rate constants. Each parameter was determined using Biacore T100 Evaluation Software version 1.1 (GE Healthcare Biosciences).
(§2) The running buffer used was HBS-EP+. Each antibody was prepared at 0.25 μg/ml, or prepared so that about 100 RU would bind to Protein A. rhNR10 used as an analyte was prepared at 0, 38.5, 77.0, and 154 nM, or at 0, 19.25, and 77.01 nM using HBS-EP+. In the measurement, first, the antibody solution was captured on Protein A, and an analyte solution was reacted at a flow rate of 20 μL/min for three minutes. Then, the solution was switched to HBS-EP+, and the dissociation phase was measured for five minutes. After measurement of the dissociation phase, the sensor chip was regenerated by washing with 10 mM glycine-HCl (pH 1.5). The obtained sensorgrams were kinetically analyzed using the Biacore-specific data analysis software, Biacore T100 Evaluation Software Version 1.1.
(In general: SPR reads the build-up and loss of mass on a sensor chip optically.)
A word on the Kd: it is the free concentration of one partner at which half of the binding sites on the other are occupied at equilibrium, for simple one-to-one binding. For orientation: koff means the rate constant with which the complex falls apart. For orientation: kon means a measure of how fast the partners come together. Turning to B1, the Kd is 1.5 nM, the koff came out at 0.0004 s⁻¹ and the kon stood at 260000 M⁻¹ s⁻¹.
Take B2: the dissociation constant Kd worked out at 2.1 nM, the koff came out at 0.00056 s⁻¹ and the on-rate constant (kon) turned out to be 260000 M⁻¹ s⁻¹.
As for B3, the equilibrium dissociation constant (Kd) is 3.7 nM, the koff worked out at 0.00052 s⁻¹ and the kon turned out to be 140000 M⁻¹ s⁻¹.
Turning to B4, the Kd turned out to be 3 nM, the koff was 0.00096 s⁻¹ and the kon amounted to 320000 M⁻¹ s⁻¹.
B5: the Kd is 1.8 nM, the koff came out at 0.00044 s⁻¹ and the kon was 250000 M⁻¹ s⁻¹.
Consider B6, for which the Kd was determined as 2.9 nM, the dissociation rate constant (koff) amounted to 0.00052 s⁻¹ and the kon was found to be 180000 M⁻¹ s⁻¹.
As for B7, the Kd is 2.4 nM, the koff came to 0.00053 s⁻¹ and the kon turned out to be 220000 M⁻¹ s⁻¹.
For B8, the Kd came to 2.1 nM, the koff was 0.00046 s⁻¹ and the kon turned out to be 220000 M⁻¹ s⁻¹.
The like results for B9 were, in that order, 1.3 nM, 0.00048 s⁻¹ and 370000 M⁻¹ s⁻¹.
Consider B10, for which the Kd came out at 1.5 nM, the off-rate constant (koff) was found to be 0.00031 s⁻¹ and the kon came out at 200000 M⁻¹ s⁻¹.

The next experiment has the same target. The description is as above. This is another data set of the same source. Here is the method:
as §1, §2
In the case of B11, the Kd came to 0.83 nM, the koff is 0.00057 s⁻¹ and the on-rate (kon) was 680000 M⁻¹ s⁻¹.
Turning to B12, the Kd was determined as 4.1 nM, the koff is 0.0013 s⁻¹ and the kon amounted to 310000 M⁻¹ s⁻¹.
Take B13: the Kd was 0.77 nM, the koff is 0.00055 s⁻¹ and the kon worked out at 710000 M⁻¹ s⁻¹.
Take B14: the equilibrium dissociation constant (Kd) is 0.65 nM, the koff came out at 0.00037 s⁻¹ and the kon was 570000 M⁻¹ s⁻¹.
Regarding B15, the dissociation constant Kd turned out to be 1.1 nM, the koff was determined as 0.0007 s⁻¹ and the kon worked out at 610000 M⁻¹ s⁻¹.
Take B16: the Kd amounted to 4.6 nM, the koff stood at 0.0013 s⁻¹ and the kon turned out to be 290000 M⁻¹ s⁻¹.
Take B17: the Kd is 3.6 nM, the koff stood at 0.0012 s⁻¹ and the association rate constant (kon) amounted to 340000 M⁻¹ s⁻¹.
As to B18, the Kd worked out at 4.6 nM, the koff amounted to 0.0013 s⁻¹ and the kon is 290000 M⁻¹ s⁻¹.
Turning to B19, the dissociation constant (Kd) was 3.5 nM, the koff is 0.0013 s⁻¹ and the kon worked out at 360000 M⁻¹ s⁻¹.
With B20, the Kd turned out to be 3.3 nM, the koff stood at 0.0012 s⁻¹ and the kon was 370000 M⁻¹ s⁻¹.
For the molecule B21, the Kd came to 0.52 nM, the dissociation rate constant (koff) is 0.00033 s⁻¹ and the kon came out at 640000 M⁻¹ s⁻¹.
